Source: patent publication US20190338048A1
Where two headings read alike, the source gives them in different places.

Assays:
[1] = biological target: CAT-2200 lambda light chain K129T_V133D; assay: LCCA, SPR
[2] = biological target: CAT-2200 lambda light chain K129T_V133D; assay: LCCA, SPR; remark: listed apart in the source
[3] = biological target: Pertuzumab kappa light chain V133D_Q160E; assay: LCCA, SPR
[4] = biological target: Pertuzumab kappa light chain V133D; assay: LCCA, SPR
[5] = biological target: Pertuzumab kappa light chain Q124E_V133D_L135W; assay: LCCA, SPR tag read-out
[6] = biological target: CAT-2200 lambda light chain T131K_V133S; assay: LCCA, SPR
[7] = biological target: CAT-2200 lambda light chain E124Q_T131K_V133S; assay: LCCA, SPR tag read-out
[8] = biological target: Pertuzumab kappa light chain V133D_Q160E; assay: LCCA, SPR; remark: listed apart in the source
[9] = biological target: CAT-2200 lambda light chain E124Q_T131R; assay: LCCA, SPR tag read-out
[10] = biological target: CAT-2200 lambda light chain E124Q_T131R; assay: LCCA, SPR tag read-out; remark: listed apart in the source
[11] = biological target: Pertuzumab kappa light chain V133I_L135W_S176D_T178E; assay: LCCA, SPR tag read-out
[12] = biological target: Pertuzumab kappa light chain S131D_V133G_L135W_T178F; assay: LCCA, SPR tag read-out
[13] = biological target: CAT-2200 lambda light chain E124Q_T131R; assay: LCCA, SPR
[14] = biological target: Pertuzumab kappa light chain L135W_S176E_T178E; assay: LCCA
[15] = biological target: CAT-2200 lambda light chain Y178K; assay: LCCA
[16] = biological target: Pertuzumab kappa light chain S131D_V133G_T178F; assay: LCCA, SPR
[17] = biological target: Pertuzumab kappa light chain V133I_S176D_T178E; assay: LCCA, SPR
[18] = biological target: Pertuzumab kappa light chain S176E_T178E; assay: LCCA, SPR
[19] = biological target: Pertuzumab kappa light chain S131E_V133G_T178F; assay: LCCA, SPR
[20] = biological target: Pertuzumab kappa light chain S131D_V133G_T178F; assay: LCCA, SPR; remark: listed apart in the source
[21] = biological target: CAT-2200 lambda light chain E124Q_T131R; assay: LCCA, SPR; remark: listed apart in the source
[22] = biological target: Pertuzumab kappa light chain S176E_T178E; assay: LCCA, SPR; remark: listed apart in the source
[23] = biological target: CAT-2200 lambda light chain E124Q_T131K; assay: LCCA, SPR
[24] = biological target: Pertuzumab kappa light chain S131E_V133G_T178F; assay: LCCA, SPR; remark: listed apart in the source
[25] = biological target: Pertuzumab kappa light chain V133L_S176D_T178E; assay: LCCA, SPR
[26] = biological target: CAT-2200 lambda light chain E124Q_T131R; assay: LCCA, SPR; remark: listed apart in the source
[27] = biological target: Pertuzumab kappa light chain V133L_S176D_T178E; assay: LCCA, SPR; remark: listed apart in the source
[28] = biological target: Pertuzumab light chain (kappa) V133D_Q160E, HA-tagged; assay: LCCA
[29] = biological target: Pertuzumab light chain (kappa) V133D, HA-tagged; assay: LCCA
[30] = biological target: CAT-2200 light chain (lambda) E124Q_T131K, FLAG-tagged; assay: LCCA
[31] = biological target: CAT-2200 light chain (lambda) E124Q_T131K_V133S, FLAG-tagged; assay: LCCA
[32] = biological target: Pertuzumab light chain (kappa) V133D_Q160E, HA-tagged; assay: LCCA; remark: listed apart in the source
[33] = biological target: Pertuzumab light chain (kappa) V133D, HA-tagged; assay: LCCA; remark: listed apart in the source
[34] = biological target: CAT-2200 light chain (lambda) T131K_V133S, FLAG-tagged; assay: LCCA
[35] = biological target: Pertuzumab light chain (kappa) V133D_Q160E, HA-tagged; assay: LCCA; remark: listed apart in the source
[36] = biological target: Pertuzumab light chain (kappa) V133D, HA-tagged; assay: LCCA; remark: listed apart in the source
[37] = biological target: Pertuzumab light chain (kappa) V133D_Q160E, HA-tagged; assay: LCCA; remark: listed apart in the source
[38] = biological target: Pertuzumab light chain (kappa) V133D, HA-tagged; assay: LCCA; remark: listed apart in the source
[39] = biological target: CAT-2200 light chain (lambda) T131K_V133S, FLAG-tagged; assay: LCCA; remark: listed apart in the source
[40] = biological target: CAT-2200 light chain (lambda) E124Q_T131K_V133S, FLAG-tagged; assay: LCCA; remark: listed apart in the source
[41] = biological target: Pertuzumab light chain (kappa) S176D_T178E, HA-tagged; assay: LCCA
[42] = biological target: Pertuzumab light chain (kappa) S176E_T178E, HA-tagged; assay: LCCA
[43] = biological target: Pertuzumab light chain (kappa) S131E_V133G_T178F, HA-tagged; assay: LCCA
[44] = biological target: Pertuzumab light chain (kappa) V133I_S176D_T178E, HA-tagged; assay: LCCA
[45] = biological target: Pertuzumab light chain (kappa) S131D_V133G_T178F, HA-tagged; assay: LCCA
[46] = biological target: Pertuzumab light chain (kappa) S176E_T178E, HA-tagged; assay: LCCA; remark: listed apart in the source
[47] = biological target: Pertuzumab light chain (kappa) S131D_V133G_T178F, HA-tagged; assay: LCCA; remark: listed apart in the source
[48] = biological target: Pertuzumab light chain (kappa) S176E_T178E, HA-tagged; assay: LCCA; remark: listed apart in the source
[49] = biological target: Pertuzumab light chain (kappa) V133L_S176D_T178E, HA-tagged; assay: LCCA
[50] = biological target: Pertuzumab light chain (kappa) V133L_S176D_T178E, HA-tagged; assay: LCCA; remark: listed apart in the source
[51] = biological target: Pertuzumab light chain (kappa) V133I_S176D_T178E, HA-tagged; assay: LCCA; remark: listed apart in the source
[52] = biological target: Pertuzumab light chain (kappa) V133I_S176E_T178E, HA-tagged; assay: LCCA
[53] = biological target: Pertuzumab light chain (kappa) V133L_S176D_T178E, HA-tagged; assay: LCCA; remark: listed apart in the source
[54] = biological target: Pertuzumab light chain (kappa) V133L_S176D_T178E, HA-tagged; assay: LCCA; remark: listed apart in the source
[55] = biological target: Pertuzumab light chain (kappa) V133L_S176D_T178E, HA-tagged; assay: LCCA; remark: listed apart in the source
[56] = biological target: Pertuzumab light chain (kappa) V133L_S176D_T178E, HA-tagged; assay: LCCA; remark: listed apart in the source

Substance CAT-2200 Fab heavy chain L143K has an H1L1:H1L2 normalized median scalar value ln(r1/f1) [1] of 1.55 and an H1L1:H1L2 normalized median scalar value ln(r1/f1) [2] of 0.9.

With Pertuzumab Fab heavy chain S186K the H2L2:H2L1 normalized median ratio [3] was 74%, the H2L2:H2L1 normalized median scalar value ln(r1/f1) [3] was 1.05 and the H2L2:H2L1 normalized median scalar value ln(r1/f1) [4] was 0.77. For the same substance, the H2L2:H2L1 median scalar value [5] was 0.96 ln(ratio), the H2L2:H2L1 normalized median ratio [5] was 72% and the H2L2:H2L1 normalized median ratio [6] was 26%. It also gave an H2L2:H2L1 normalized median ratio [7] of 28% and an H2L2:H2L1 normalized median scalar value ln(r1/f1) [8] of 0.22.

Pertuzumab Fab heavy chain S188K was tested, and the H2L2:H2L1 normalized median ratio [9] was 12%, the H2L2:H2L1 normalized median ratio [10] was 15% and the H2L2:H2L1 median scalar value [11] was 2.03 ln(ratio). For the same substance, the H2L2:H2L1 normalized median ratio [11] was 88%, the H2L2:H2L1 median scalar value [12] was 1.72 ln(ratio) and the H2L2:H2L1 normalized median ratio [12] was 85%. For the same substance, the H2L2:H2L1 normalized median ratio [13] was 9%, the H2L2:H2L1 median scalar value [14] was 2.55 ln and the H2L2:H2L1 normalized median ratio [14] was 92%. For the same substance, the H2L2:H2L1 normalized median ratio [15] was 8%, the H2L2:H2L1 normalized median scalar value ln(r1/f1) [16] was 2.22 and the H2L2:H2L1 normalized median ratio [17] was 91%. The H2L2:H2L1 normalized median scalar value ln(r1/f1) [17] was 2.33, the H2L2:H2L1 normalized median scalar value ln(r1/f1) [18] was 2.75 and the H2L2:H2L1 normalized median ratio [19] was 84%. For the same substance, the H2L2:H2L1 normalized median scalar value ln(r1/f1) [19] was 1.67, the H2L2:H2L1 normalized median scalar value ln(r1/f1) [20] was 1.5 and the H2L2:H2L1 normalized median ratio [21] was 16%. For the same substance, the H2L2:H2L1 normalized median scalar value ln(r1/f1) [22] was 2.71, the H2L2:H2L1 normalized median ratio [23] was 15% and the H2L2:H2L1 normalized median ratio [24] was 85%. It also gave an H2L2:H2L1 normalized median scalar value ln(r1/f1) [24] of 1.7.

Substance Pertuzumab Fab heavy chain V177I_S188K has an H2L2:H2L1 normalized median scalar value ln(r1/f1) [25] of 2.3, an H2L2:H2L1 normalized median ratio [26] of 9% and an H2L2:H2L1 normalized median scalar value ln(r1/f1) [27] of 2.15.

“Pertuzumab heavy chain Fab construct L143I_S186K” showed an H2L2:H2L1 normalized median scalar value ln(r1/f1) [28] of 0.76, an H2L2:H2L1 normalized median scalar value ln(r1/f1) [29] of 0.26 and an H2L2:H2L1 normalized median ratio (H2L1 share) [30] of 31%. It also gave an H2L2:H2L1 normalized median ratio (H2L1 share) [31] of 17%, an H2L2:H2L1 normalized median scalar value ln(r1/f1) [32] of 1.6 and an H2L2:H2L1 normalized median scalar value ln(r1/f1) [33] of 1.18. For the same substance, the H2L2:H2L1 normalized median ratio (H2L1 share) [34] was 28%, the H2L2:H2L1 normalized median scalar value ln(r1/f1) [35] was 1.5 and the H2L2:H2L1 normalized median scalar value ln(r1/f1) [36] was 0.92. For the same substance, the H2L2:H2L1 normalized median scalar value ln(r1/f1) [37] was 0.81 and the H2L2:H2L1 normalized median scalar value ln(r1/f1) [38] was 0.36.

“Pertuzumab heavy chain Fab construct S186K” was tested, and the H2L2:H2L1 normalized median scalar value ln(r1/f1) [28] was 0.22, the H2L2:H2L1 normalized median scalar value ln(r1/f1) [29] was 0.02 and the H2L2:H2L1 normalized median ratio (H2L1 share) [39] was 26%. It also gave an H2L2:H2L1 normalized median ratio (H2L1 share) [31] of 22%, an H2L2:H2L1 normalized median scalar value ln(r1/f1) [32] of 1.27 and an H2L2:H2L1 normalized median scalar value ln(r1/f1) [33] of 0.82. For the same substance, the H2L2:H2L1 normalized median ratio (H2L1 share) [40] was 31%, the H2L2:H2L1 normalized median scalar value ln(r1/f1) [35] was 1.05 and the H2L2:H2L1 normalized median scalar value ln(r1/f1) [36] was 0.77. For the same substance, the H2L2:H2L1 normalized median scalar value ln(r1/f1) [37] was 0.41 and the H2L2:H2L1 normalized median scalar value ln(r1/f1) [38] was 0.22.

In the case of “Pertuzumab heavy chain Fab construct S188K”, the H2L2:H2L1 normalized median scalar value ln(r1/f1) [41] is reported as 1.41, the H2L2:H2L1 normalized median scalar value ln(r1/f1) [42] is reported as 2.67 and the H2L2:H2L1 normalized median scalar value ln(r1/f1) [43] is reported as 1.67. For the same substance, the H2L2:H2L1 normalized median scalar value ln(r1/f1) [44] was 2.33, the H2L2:H2L1 normalized median scalar value ln(r1/f1) [45] was 2.22 and the H2L2:H2L1 normalized median scalar value ln(r1/f1) [46] was 2.75. The H2L2:H2L1 normalized median scalar value ln(r1/f1) [47] was 1.5 and the H2L2:H2L1 normalized median scalar value ln(r1/f1) [48] was 2.71.

For “Pertuzumab heavy chain Fab construct V177I_S188K”, the H2L2:H2L1 normalized median scalar value ln(r1/f1) [49] was 0.55, the H2L2:H2L1 normalized median scalar value ln(r1/f1) [50] was 2.38 and the H2L2:H2L1 normalized median scalar value ln(r1/f1) [51] was 2.58. For the same substance, the H2L2:H2L1 normalized median scalar value ln(r1/f1) [52] was 2.63, the H2L2:H2L1 normalized median scalar value ln(r1/f1) [53] was 1.83 and the H2L2:H2L1 normalized median scalar value ln(r1/f1) [54] was 2.3. The H2L2:H2L1 normalized median scalar value ln(r1/f1) [55] was 1.64 and the H2L2:H2L1 normalized median scalar value ln(r1/f1) [56] was 2.15.
